Article PMC10869282

Key:
[1] = molecular target: cis-epoxysuccinate hydrolase producing L(+)-tartaric acid from Klebsiella sp. BK-58 (KlCESH[L]) (Klebsiella sp. BK-58); assay: SEC; gel filtration of the purified enzyme against a molecular standard mixture (ovalbumin, chymotrypsin, ribonuclease A, aprotinin); aggregation state of RhCESH[L] unchanged in the presence or absence of DTT
[2] = molecular target: cis-epoxysuccinate hydrolase producing L(+)-tartaric acid from Rhodococcus opacus (RhCESH[L]) (Rhodococcus opacus); assay: as above

stoichiometry N [1]	stoichiometry N [2]	Substance
2	–	cis-epoxysuccinate hydrolase producing L(+)-tartaric acid from Klebsiella sp. BK-58 (KlCESH[L]) (enzyme)
–	2	cis-epoxysuccinate hydrolase producing L(+)-tartaric acid from Rhodococcus opacus (RhCESH[L]) (enzyme)
